According to the supplement of paper PMC10567573:
± gives the standard deviation.

Assay: protein stability index of a GFP-peptide fusion (GPS, HEK-293T) (PSI 1-6); higher = more stable
[1] = treatment: DMSO, c terminus: a fixed tail appended
[2] = treatment: MLN4924 1 uM, 8 h, c terminus: a fixed tail appended
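Further: 24-mer peptide tiles fused after GFP, lentivirally expressed, FACS-sorted into six equal bins by GFP/DsRed ratio, decoded by Illumina sequencing, PSI is the read-weighted mean bin number.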

Sequence | protein stability index [1] | protein stability index [2] | protein stability index (treatment: DMSO, c terminus: native) | protein stability index (treatment: MLN4924 1 uM, 8 h, c terminus: native)
MAAGTSSYWEDLRKQARQLENELD [GOSR1] | 4.11 ± 0.15 | 3.99 ± 0.25 | – | –
FRYLQGMLEAGEGGDWPGPGGPRN [PDLIM4] | 2.76 ± 0.12 | 3.64 ± 0.49 | – | –
AILQNHTDFKDKIVLDVGCGSGIL [CARM1] | 2.31 ± 0.21 | 2.34 ± 0.25 | – | –
LSVQQPTALALEPDAIRSRSNTLR [PCDHGC5] | 4.43 ± 0.17 | 4.56 ± 0.19 | – | –
FAPLLDEQYDLATKRVRQLLDLDP [GOLPH3] | 2.64 ± 0.48 | 2.94 ± 0.33 | – | –
ESIQRIAVHLCNALVCQVDNDHKE [ZER1] | 2.81 ± 0.63 | 2.64 ± 0.36 | – | –
AEVAPEERENVAVAKLQESQPGNA [SDE2] | 5.49 ± 0.18 | 5.718 ± 0.056 | – | –
GVMSAYAMCVRYDGVEVDDSYCDA [ADAMTSL2] | 3.05 ± 0.15 | 2.91 ± 0.23 | – | –
RSETFLEVWGNALLRPPVAAFVRA [DNAAF3] | 2.22 ± 0.21 | 2.34 ± 0.13 | – | –
CDECGKHFSQGSALILHQRIHSGE [ZNF24] | 5.16 ± 0.2 | 5.43 ± 0.2 | – | –
GGSSGQVTSNGSIGRDPPAETQPQ [CLPTM1] | 5.47 ± 0.24 | 5.42 ± 0.21 | – | –
GLLETEPLQGTDEDAVASADFSSM [TPD52L1] | 5.34 ± 0.3 | 5.29 ± 0.37 | – | –
TWALYNLVSVYPDKYCPLLIKEGG [ZER1] | 2.62 ± 0.99 | 2.26 ± 0.34 | – | –
MPHSVTLRGPSPWGFRLVGGRDFS [PDLIM4] | 2.61 ± 0.37 | 2.8 ± 0.23 | – | –
SRILNEMRDQYEQMAEKNRRDAET [KRT16] | 4.65 ± 0.27 | 4.78 ± 0.27 | – | –
ETTEAIDDEGWLHSGDLGQLDGLG [ACSBG2] | 5.23 ± 0.25 | 5.15 ± 0.21 | – | –
FAASLLTVFAWLLQYARGLWLARA [C2CD2L] | 2.8 ± 0.49 | 2.54 ± 0.4 | – | –
LAFRSGSDNLLVILKRKWWKYILL [SLC35F2] | 2.58 ± 0.47 | 1.98 ± 0.54 | – | –
CFVEFHEHRHAAAALAAMNGRKIM [TIA1] | 2.71 ± 0.14 | 2.81 ± 0.17 | – | –
KTLQEIYRKYRKLIESELSYFVIV [FBXO39] | 2.37 ± 0.41 | 2.62 ± 0.55 | – | –
RVKREFEPASAREAPASVVPFVRV [USP39] | 3.33 ± 0.57 | 3.5 ± 0.24 | – | –
IEELEREAERKIIEENITSAAPSN [SRPK2] | 5.34 ± 0.15 | 5.17 ± 0.25 | – | –

Sequence | protein stability index [1] | protein stability index [2] | protein stability index (treatment: DMSO, c terminus: native) | protein stability index (treatment: MLN4924 1 uM, 8 h, c terminus: native)
SLNELMIVIGILSAYISNYAFANV [SLC2A12] | 3.35 ± 0.31 | 3.18 ± 0.39 | – | –
FLADEEFDVVVCDQVSACIPVFRL [ALG2] | 2.3 ± 0.43 | 2.34 ± 0.47 | – | –
WLPLHYAAWQGHLPIVKLLAKQPG [RIPK4] | 1.94 ± 0.24 | 2.63 ± 0.81 | – | –
EEERRRREEEERERLQKEEEKRRR [ACBD3] | 5.59 ± 0.45 | 5.69 ± 0.12 | – | –
PRRLGRLKYQAPDIDVQLSSELTD [NOP53] | 4.11 ± 0.48 | 4.14 ± 0.34 | – | –
VCGGAQRPGHLPGLLLGSHGLLGS [CDC25B] | 1.9 ± 0.96 | 3.24 ± 1.6 | – | –
WGFGLEELYGLALRFFKEKDGKAF [ACBD3] | 2.4 ± 0.12 | 2.39 ± 0.61 | – | –
YQARKPLWFYNTSLKFFLNKPMLA [RHOBTB3] | 2.67 ± 0.57 | 1.97 ± 0.19 | – | –
PYMNPSPFTVSPNTHVSQVFNLFR [CLCN6] | 2.64 ± 0.16 | 2.73 ± 0.2 | – | –
VNDLAVGLRRLGLHRTEGELQKIV [SLC25A25] | 3.03 ± 0.074 | 3.02 ± 0.28 | – | –
MQEDRDGSCSTVGGVGYGDSKDCI [ZNF277] | 5.04 ± 0.28 | 5.1 ± 0.18 | – | –
FMVVDLLLGGDLRYHLQQNVHFKE [STK32A] | 2.8 ± 0.66 | 3.09 ± 0.78 | – | –
LEISPDCSQYDRVYCGAGVQKEHE [PCMTD2] | 4.56 ± 0.3 | 4.44 ± 0.21 | – | –
AGGAGRGEDEENREHRVRRIHVRR [KCTD13] | 5.19 ± 0.16 | 5.34 ± 0.28 | – | –
KENKDVIQKNKLKLTREQEELEEA [MNAT1] | 5.49 ± 0.29 | 5.37 ± 0.31 | – | –
NDLLEILEIDDLDAIVPAVKKLKV [CEP70] | 2.4 ± 0.46 | 2.87 ± 0.27 | – | –
FQILLLSDPSTIEASNFQMDRKTR [PNLIPRP1] | 2.03 ± 0.43 | 2.42 ± 0.28 | – | –
FAGSMFGSVALGPVCPTVCPPGGI [KRT71] | 2.73 ± 0.61 | 2.36 ± 0.57 | – | –
SPRDLQFSEIRETSAKVNWMPPPS [TNXB] | 3.73 ± 0.23 | 3.69 ± 0.29 | – | –
ELGSEVDITEGDRKPDYTAYVAMI [ATF4] | 3.46 ± 0.15 | 3.61 ± 0.3 | – | –
ASTKMCEQALGKGCGADSKKKRPP [PLK2] | 4.58 ± 0.11 | 4.76 ± 0.24 | – | –
GGTDPHGYHQVPGSAAPGSPLAAD [FOXJ1] | 5.11 ± 0.099 | 5.234 ± 0.051 | – | –

Sequence | protein stability index [1] | protein stability index [2] | protein stability index (treatment: DMSO, c terminus: native) | protein stability index (treatment: MLN4924 1 uM, 8 h, c terminus: native)
KISKEEMVRRLKMVVKTFMDMDQD [PDS5B] | 2.26 ± 0.21 | 2.23 ± 0.25 | – | –
AQAAAAESDSRKVAEETPDGAPAL [PRKX] | 5.38 ± 0.092 | 5.55 ± 0.12 | – | –
NGSDNLPSSAGSGDKPLSDPAPF [TPD52L2] | – | – | 5.44 ± 0.21 | 5.51 ± 0.18
DREQVSSYNITVTATDGGSPPLST [PCDHGA10] | 4.54 ± 0.24 | 4.74 ± 0.14 | – | –
TIIASNAEEAEILHSACGLSKDHQ [TOR1AIP2] | 4.48 ± 0.14 | 4.54 ± 0.24 | – | –
PPAEEAEQPGALAREFLAAMEPEP [FKBP8] | 5.49 ± 0.45 | 5.57 ± 0.072 | – | –
NASFIDGYRQQKAYIATQGPLAET [PTPRD] | 3.46 ± 0.43 | 3.53 ± 0.49 | – | –
DTEVITVEKSSPATSLFVELDEEE [BCL2L13] | 5.39 ± 0.065 | 5.54 ± 0.25 | – | –
EQLREALHEALLEYEAGRAGPGGG [ESRRA] | 3.92 ± 0.27 | 4.05 ± 0.39 | – | –
LVQLRNMVQQIQENSVEFEACLVA [TRIM9] | 2.25 ± 0.1 | 2.54 ± 0.37 | – | –
IRVWFQNKRCKDKKKSILMKQLQQ [ISL2] | 2.08 ± 0.26 | 2.17 ± 0.23 | – | –
ERLAKNLVEKGVLTTEKQNFLLFD [GOLPH3] | 3.16 ± 0.52 | 3.43 ± 0.34 | – | –
HRQSFGTNSDVLAQQFALMAPLLF [DCAF4] | 2.31 ± 0.28 | 2.36 ± 0.27 | – | –
APGPSPADKKRSGKKKISKADIGA [WAS] | 5.02 ± 0.23 | 4.86 ± 0.17 | – | –
GSRISVSRSTSFRGGMGSGGLATG [KRT18] | 3.65 ± 0.19 | 4.04 ± 0.69 | – | –
DISIHHFTCDEENVFAAVGRGLYV [WDR41] | 2.7 ± 0.35 | 2.61 ± 0.43 | – | –
SVHFDGETIEGAPPLWAASAAGHL [FEM1A] | 3.42 ± 0.07 | 3.47 ± 0.5 | – | –
KKLKIFAMPMQDIKMILKMVQLDS [PRAME] | 2.93 ± 0.58 | 2.75 ± 0.56 | – | –
GRLSMAAADIVNFLTVGSVLQMWH [ZBTB22] | 3.33 ± 0.17 | 3.4 ± 0.48 | – | –
DLMVEATPRRVFANAHTYHINSIS [PPP2R2B] | 2.58 ± 0.23 | 2.49 ± 0.3 | – | –
LASYPLALVRTRMQAQASIEGAPE [SLC25A25] | 4.03 ± 0.19 | 4.18 ± 0.43 | – | –
FLPGYVGGIQEGAVTPAGVVNKYQ [DHCR7] | 3.42 ± 0.21 | 3.45 ± 0.24 | – | –

Sequence | protein stability index [1] | protein stability index [2] | protein stability index (treatment: DMSO, c terminus: native) | protein stability index (treatment: MLN4924 1 uM, 8 h, c terminus: native)
WDLSEAWMQANYDPLSDSDSMTSQ [ELOA2] | 4.34 ± 0.33 | 4.45 ± 0.21 | – | –
DTFAAYTREQLYQAIFHAVDQYLA [MCOLN1] | 2.66 ± 0.44 | 2.42 ± 0.44 | – | –
IISAHIHPVCSLCWSRDGHKLVSA [RBBP5] | 2.45 ± 0.37 | 2.14 ± 0.24 | – | –
LEGQSGVTIKHVACGDFFTACLTD [NEK8] | 2.75 ± 0.28 | 2.89 ± 0.47 | – | –
EELTREAVAVDVAVPKRLLEIVGR [HAGHL] | 3.85 ± 0.17 | 3.91 ± 0.38 | – | –
SDENGGTYVSPPGNEEEESKIFTT [DDIT3] | 5.53 ± 0.36 | 5.49 ± 0.31 | – | –
ITTKTADGKCAYRASYSDGKLKAP [MLH1] | 3.78 ± 0.2 | 3.67 ± 0.12 | – | –
ERRGTPADTEEPTKDPDVAFHGLS [PSD2] | 5.38 ± 0.42 | 5.38 ± 0.17 | – | –
SEASKAFQMEKIEHGYENMNHFTV [TRIM55] | 3.29 ± 0.21 | 3.38 ± 0.28 | – | –
NGCEVKNRKSILSRHLNSQVKKTT [PHTF1] | 3.95 ± 0.24 | 4 ± 0.37 | – | –
QRRSMVSPNFGFMGQLLQYESEIL [DUSP5] | 2.5 ± 0.29 | 2.45 ± 0.38 | – | –
MAESLRSPRRSLYKLVGSPPWKEA [RPAIN] | 2.73 ± 0.48 | 2.77 ± 0.53 | – | –
AFQAFTNDLLEILEIDDLDAIVPA [CEP70] | 2.73 ± 0.22 | 2.73 ± 0.5 | – | –
PEPLFLGEEDFSLSATIGSILREL [SERTAD3] | 2.6 ± 0.12 | 2.57 ± 0.31 | – | –
FLPLNSAQTLHHKSCYNGRFQLLY [DNAAF3] | 2.54 ± 0.32 | 2.38 ± 0.36 | – | –
AFPSGHLLDAHILEWHDSLFQILS [ZNF511] | 2.35 ± 0.33 | 2.29 ± 0.3 | – | –
LLKKKPPQQQHHKAKRNRTCRPPS [ANKRD17] | 3.93 ± 0.22 | 4 ± 0.29 | – | –
LISKGANVNRTTANNDHTVLSLAC [ANKRD17] | 2.82 ± 0.22 | 2.81 ± 0.27 | – | –
FKLTNKNSDRMTHCGVLEFVADEG [UFD1] | 3.32 ± 0.18 | 3.27 ± 0.31 | – | –
HAVSTCHFCVDDTKLLSGSYDCTV [WDR88] | 2.46 ± 0.26 | 2.44 ± 0.33 | – | –
WFHAKSAELNKEVSTNTAMIQTSK [KRT13] | 4.09 ± 0.24 | 4.11 ± 0.11 | – | –
RRLAQEPLGLEVDQFLEDVRLQER [NOP53] | 4.5 ± 0.16 | 4.54 ± 0.13 | – | –
